Assay [1] deals with T1, human CD3ed-Fc (human).
T1 construct: Biotinylated in culture by BirA; also called biotin-labeled protein containing human CD3 epsilon and human CD3 delta linked to a human antibody constant region; CD3 heterodimer fused with the antibody constant region
T1 chain 1: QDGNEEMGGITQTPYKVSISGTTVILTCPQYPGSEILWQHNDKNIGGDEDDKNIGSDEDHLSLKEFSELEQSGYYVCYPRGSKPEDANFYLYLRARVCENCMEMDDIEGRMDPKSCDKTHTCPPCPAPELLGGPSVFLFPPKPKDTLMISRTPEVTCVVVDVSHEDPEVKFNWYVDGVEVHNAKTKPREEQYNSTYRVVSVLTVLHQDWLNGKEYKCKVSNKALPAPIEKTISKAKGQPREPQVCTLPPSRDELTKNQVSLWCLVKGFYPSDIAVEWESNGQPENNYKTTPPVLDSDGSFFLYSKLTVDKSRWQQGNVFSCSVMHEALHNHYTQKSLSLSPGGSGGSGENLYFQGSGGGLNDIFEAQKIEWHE
T1 chain 2: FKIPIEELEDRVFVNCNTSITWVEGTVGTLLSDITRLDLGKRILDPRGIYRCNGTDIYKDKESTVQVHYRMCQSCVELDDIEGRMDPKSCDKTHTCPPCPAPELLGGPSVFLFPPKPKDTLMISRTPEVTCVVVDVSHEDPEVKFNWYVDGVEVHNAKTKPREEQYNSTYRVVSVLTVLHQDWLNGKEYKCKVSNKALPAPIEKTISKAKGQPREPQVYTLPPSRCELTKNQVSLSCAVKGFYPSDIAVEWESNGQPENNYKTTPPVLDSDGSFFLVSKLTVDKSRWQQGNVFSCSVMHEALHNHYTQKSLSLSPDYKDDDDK
Put plainly: phage display: ELISA / panning of the immunized-alpaca VHH library (Example 5-1 or 5-2).

Assay [2] concerns the target T1, human CD3ed-Fc. Put plainly: BLI (Octet RED), human CD3ed-Fc on the sensor, protease-treated molecule as analyte. The procedure:
The protease concentration was set to 25 nM, and Octet RED (Pall ForteBio Corp.) was used in the assay.
Next, the CD3 binding evaluation of VHH released by protease treatment was conducted in the same way as in Example 3.
(In general: In BLI a coated tip is dipped into the sample, and binding shifts an interference pattern.)

A further assay deals with T2, 20A11hu-G1m/VK2-28-k0MT (Homo sapiens (Human), UniProt P0DOX5 2-447 = IgG part).
T2 construct: IgG antibody-like molecule; VHH 20A11hu in place of VH
T2 sequence (P0DOX5 other isoform, or with tags, fused parts or gaps, chain 1 of 2): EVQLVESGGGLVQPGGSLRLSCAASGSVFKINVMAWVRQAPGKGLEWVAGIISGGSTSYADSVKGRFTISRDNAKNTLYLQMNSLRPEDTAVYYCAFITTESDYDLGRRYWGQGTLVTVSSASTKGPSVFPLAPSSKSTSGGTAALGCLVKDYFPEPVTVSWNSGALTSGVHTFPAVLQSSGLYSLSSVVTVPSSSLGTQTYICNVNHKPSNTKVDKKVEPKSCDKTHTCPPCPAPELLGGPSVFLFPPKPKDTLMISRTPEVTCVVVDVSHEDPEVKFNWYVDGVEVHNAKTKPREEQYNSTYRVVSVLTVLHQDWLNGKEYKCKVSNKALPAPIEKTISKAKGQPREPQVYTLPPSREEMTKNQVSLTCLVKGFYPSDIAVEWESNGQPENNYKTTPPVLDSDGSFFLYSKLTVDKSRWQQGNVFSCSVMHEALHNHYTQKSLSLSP
T2 sequence (light, as listed by the source, chain 2 of 2): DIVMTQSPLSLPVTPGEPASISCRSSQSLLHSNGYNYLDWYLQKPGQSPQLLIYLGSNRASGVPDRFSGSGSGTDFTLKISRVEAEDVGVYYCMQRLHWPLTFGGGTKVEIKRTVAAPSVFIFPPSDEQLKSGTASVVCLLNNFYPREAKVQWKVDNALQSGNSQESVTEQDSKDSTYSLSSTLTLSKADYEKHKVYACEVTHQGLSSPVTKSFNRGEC
The assay can be described thus: BLI (Octet), in the same way as in Example 3, 30 C or 25 C. The procedure:
Next, the IL-6R binding evaluation of VHH released by protease treatment was conducted at 30° C. or 25° C. in the same way as in Example 3.

The target in a further assay is T3, 20A11-G1m/VK2-28-k0MT.
T3 construct: IgG antibody-like molecule; VHH 20A11 in place of VH
T3 sequence (heavy, as listed by the source, chain 1 of 2): as the sequence (P0DOX5 other isoform, or with tags, fused parts or gaps, chain 1 of 2) above, with V37Y, L45R, W47L counted along it
T3 sequence (light, as listed by the source, chain 2 of 2): as the sequence (light, as listed by the source, chain 2 of 2) above
The assay can be described thus: BLI (Octet), in the same way as in Example 3.

The target in a further assay is T4, IL6R90-G1m/VK2-28-k0MT.
T4 construct: IgG antibody-like molecule; VHH IL6R90 in place of VH
T4 sequence (light, as listed by the source, chain 2 of 2, other chains not shown): as the sequence (light, as listed by the source, chain 2 of 2) above
Put plainly: BLI (Octet HTX), molecule captured on Protein A biosensor, hsIL-6R as analyte, 30 C. The procedure: (§1) The hsIL-6R binding evaluation of each molecule was conducted using Octet HTX (Pall ForteBio Corp.). Specifically, each molecule was allowed to bind to Biosensor/Protein A (ProA) (Pall ForteBio Corp., 18-5013), and hsIL-6R was allowed to act thereon, followed by binding evaluation at 30° C.

A further assay has as its target T5, IL6R90-G1m/lamL (Homo sapiens (Human), UniProt P0DOY2 1-106).
T5 construct: IgG antibody-like molecule; VHH IL6R90 in place of VH
Described as above. The procedure:
as §1

The values that follow come from patent US20250026852A1 (Chugai, published 2025).

B1: bC3edL1R1N164H01 (VHH)
VHH: QVQLVESGGGLVQPGGSLRLSCAASGFTFDVYGMSWVRHSPGKGLEWVSTINWNGGSTYYAESMKGRFTISRDNAKNTVYLQMNSLKPEDTAVYYCAKFAPWDGDMEWGQGTQVTVSG
With B1, in the assay with human CD3ed-Fc [1], the binding result was “binds”.

B2: bC3edL1R1N164H01-G1mISHI01/VK1-39-k0MT after protease (MT-SP1) treatment (VHH)
VHH: B1 VHH
notes: also called released VHH; not shown: residues of the protease cleavage site left at the C terminus
As for B2, the binding result with human CD3ed-Fc [2] is listed as “binds”.

B3: bC3edL1R1N160H01 (VHH)
VHH: QVQLVESGGGLVQPGGSLRLSCAASGFTFNHCWMYWVRQAPGKGLEWVSVINTDGGSAYYADSVKGRFTISRDNAKNTLYLQMNSLKSEDTAVYYCARDWAPLVDYYYGMDYWGKGTLVTVSG
B3: in the assay with human CD3ed-Fc [1], the binding result is “binds”.

B4: bC3edL1R1N160H01-G1mISHI01/VK1-39-k0MT after protease (MT-SP1) treatment (VHH)
VHH: B3 VHH
notes: as for B2
B4: the binding result with human CD3ed-Fc [2] was “binds”.

B5: soluble human IL-6R (receptor)
chain: LAPRRCPAQEVARGVLTSLPGDSVTLTCPGVEPEDNATVHWVLRKPAAGSHPSRWAGMGRRLLLRSVQLHDSGNYSCYRAGRPAGTVHLLVDVPPEEPQLSCFRKSPLSNVVCEWGPRSTPSLTTKAVLLVRKFQNSPAEDFQEPCQYSQESQKFSCQLAVPEGDSSFYIVSMCVASSVGSKFSKTQTFQGCGILQPDPPANITVTAVARNPRWLSVTWQDPHSWNSSFYRLRFELRYRAERSKTFTTWMVKDLQHHCVIHDAWSGLRHVVQLRAQEEFGQGEWSEWSPEAMGTPWTESRSPPAENEVSTPMQALTTNKDDDNILFRDSANATSLPVQ
notes: also called hsIL-6R; recombinant human IL-6R
For B5, the binding result was “no binding” in the assay with 20A11hu-G1m/VK2-28-k0MT, “binds” in the assay with 20A11-G1m/VK2-28-k0MT, “no binding” with IL6R90-G1m/VK2-28-k0MT and “binds” in the assay with IL6R90-G1m/lamL.

B6: bC3edL1R1N161H01 (VHH)
VHH: QVQLVESGGGLVQPGGSLRLSCAASGFPFDNYVMSWVRQAPGKGLEWISAISWNGGSTYYAESMKGRFTISRDNAKSTLYLQMNSLKSEDTAVYYCAKEPRVYYSGSPDYWGQGTQVTVSG
For the molecule B6, the binding result with human CD3ed-Fc [1] is on record as “binds”.

B7: bC3edL1R1N161H01-G1mISHI01/VK1-39-k0MT after protease (MT-SP1) treatment (VHH)
VHH: B6 VHH
notes: as for B2
In the case of B7, the binding result with human CD3ed-Fc [2] is “binds”.
